The supplement of paper PMC10567573

B1: SPSB4 (parent)
chain: LDMDEGTLSFIVDGQYLGVAFRGL
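Also: lentivirally expressed fusions sorted by FACS into six bins by GFP to DsRed ratio, PSI derived from sequencing read proportions per bin multiplied by bin number.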

Variants of: B1
Test: protein stability index of a GFP-peptide fusion (GPS, HEK-293T) (PSI 1-6); higher = more stable
Conditions: c terminus: a fixed tail appended
In the case of LDMDEGTLSDIVDGQYLGVAFRGL [F10D], the protein stability index is reported as 2.79. For LDMDEGTLSPIVDGQYLGVAFRGL [F10P], the protein stability index was 2.3. With LDMDEGTLSYIVDGQYLGVAFRGL [F10Y] the protein stability index was 1.89. LDMDEGTLSRIVDGQYLGVAFRGL [F10R] showed a protein stability index of 2.21. LDMDEGTLSCIVDGQYLGVAFRGL [F10C] gave a protein stability index of 2.49. Variant LDMDEGTLSKIVDGQYLGVAFRGL [F10K] has a protein stability index of 2.37. LDMDEGTLSWIVDGQYLGVAFRGL [F10W] gave a protein stability index of 2.33. For LDMDEGTLSLIVDGQYLGVAFRGL [F10L], the protein stability index was 1.76. Variant LDMDEGTLSEIVDGQYLGVAFRGL [F10E] has a protein stability index of 3.13. Variant LDMDEGTLSMIVDGQYLGVAFRGL [F10M] has a protein stability index of 1.73. In the case of LDMDEGTLSNIVDGQYLGVAFRGL [F10N], the protein stability index is reported as 2.27. Variant LDMDEGTLSTIVDGQYLGVAFRGL [F10T] has a protein stability index of 2.44. Work on LDMDEGTLSAIVDGQYLGVAFRGL [F10A] yielded a protein stability index of 1.84. With LDMDEGTLSQIVDGQYLGVAFRGL [F10Q] the protein stability index was 2. With LDMDEGTLSHIVDGQYLGVAFRGL [F10H] the protein stability index was 2.14. With LDMDEGTLSVIVDGQYLGVAFRGL [F10V] the protein stability index was 2.38. Work on LDMDEGTLSSIVDGQYLGVAFRGL [F10S] yielded a protein stability index of 2.13. For LDMDEGTLSGIVDGQYLGVAFRGL [F10G], the protein stability index was 1.5. LDMDEGTLSFIVDGQYLGCAFRGL [V19C] gave a protein stability index of 2.33. Work on LDMDEGTLSFIVDGQYLGGAFRGL [V19G] yielded a protein stability index of 2.18. Variant LDMDEGTLSFIVDGQYLGFAFRGL [V19F] has a protein stability index of 2.31. For LDMDEGTLSFIVDGQYLGEAFRGL [V19E], the protein stability index was 1.85. Variant LDMDEGTLSFIVDGQYLGAAFRGL [V19A] has a protein stability index of 1.97. In the case of LDMDEGTLSFIVDGQYLGDAFRGL [V19D], the protein stability index is reported as 1.99. With LDMDEGTLSFIVDGQSLGVAFRGL [Y16S] the protein stability index was 1.84. In the case of LDMDEGTLSFIVDGQELGVAFRGL [Y16E], the protein stability index is reported as 2.56. Work on LDMDEGTLSFIVDGQCLGVAFRGL [Y16C] yielded a protein stability index of 2.12. With LDMDEGTLSFIVDGQTLGVAFRGL [Y16T] the protein stability index was 2.34. In the case of LDMDEGTLSFIVDGQGLGVAFRGL [Y16G], the protein stability index is reported as 1.78. LDMDEGTLSFIVDGQHLGVAFRGL [Y16H] showed a protein stability index of 2.37. LDMDEGTLSFIVDGQALGVAFRGL [Y16A] gave a protein stability index of 1.57. LDMDEGTLSFIVDGQKLGVAFRGL [Y16K] gave a protein stability index of 1.93. LDMDEGTLSFIVDGQWLGVAFRGL [Y16W] gave a protein stability index of 1.9. Variant LDMDEGTLSFIVDGQNLGVAFRGL [Y16N] has a protein stability index of 1.59. In the case of LDMDEGTLSFIVDGQQLGVAFRGL [Y16Q], the protein stability index is reported as 1.26. With LDMDEGTLSFIVDGQLLGVAFRGL [Y16L] the protein stability index was 2.52. LDMDEGTLSFIVDGQPLGVAFRGL [Y16P] showed a protein stability index of 2.27. LDMDEGTLSFIVDGQFLGVAFRGL [Y16F] showed a protein stability index of 3.17. Work on LDMDEGTLSFIVDGQDLGVAFRGL [Y16D] yielded a protein stability index of 1.55. In the case of LDMDEGTLSFIVDGQVLGVAFRGL [Y16V], the protein stability index is reported as 3.47. For LDMDEGTLSFIVDGQRLGVAFRGL [Y16R], the protein stability index was 1.69. Work on LDMDEGTLSFIVDGQILGVAFRGL [Y16I] yielded a protein stability index of 3.04. LDMDEGTLSFIVDGQMLGVAFRGL [Y16M] gave a protein stability index of 2.81. With LDMDEGTLSFIVDGAYLGVAFRGL [Q15A] the protein stability index was 2.87. Work on LDMDEGTLSFIVDGVYLGVAFRGL [Q15V] yielded a protein stability index of 2.19. With LDMDEGTLSFIVDGMYLGVAFRGL [Q15M] the protein stability index was 1.98. Work on LDMDEGTLSFIVDGYYLGVAFRGL [Q15Y] yielded a protein stability index of 2.62. LDMDEGTLSFIVDGFYLGVAFRGL [Q15F] showed a protein stability index of 2.25. Work on LDMDEGTLSFIVDGLYLGVAFRGL [Q15L] yielded a protein stability index of 2.2. With LDMDEGTLSFIVDGIYLGVAFRGL [Q15I] the protein stability index was 2.02. In the case of LDMDEGTLSFIVDGKYLGVAFRGL [Q15K], the protein stability index is reported as 2.5. For LDMDEGTLSFIVDGNYLGVAFRGL [Q15N], the protein stability index was 3.31. Variant LDMDEGTLSFIVDGEYLGVAFRGL [Q15E] has a protein stability index of 1.39. With LDMDEGTLSFIVDGHYLGVAFRGL [Q15H] the protein stability index was 3.32. LDMDEGTLSFIVDGSYLGVAFRGL [Q15S] gave a protein stability index of 2.35. With LDMDEGTLSFIVDGTYLGVAFRGL [Q15T] the protein stability index was 3.63. Work on LDMDEGTLSFIVDGDYLGVAFRGL [Q15D] yielded a protein stability index of 2.33. In the case of LDMDEGTTSFIVDGQYLGVAFRGL [L8T], the protein stability index is reported as 1.87. For LDMDEGTRSFIVDGQYLGVAFRGL [L8R], the protein stability index was 2.11. LDMDEGTVSFIVDGQYLGVAFRGL [L8V] showed a protein stability index of 4.24. With LDMDEGTSSFIVDGQYLGVAFRGL [L8S] the protein stability index was 1.67. For LDMDEGTWSFIVDGQYLGVAFRGL [L8W], the protein stability index was 3.21. For LDMDEGTPSFIVDGQYLGVAFRGL [L8P], the protein stability index was 1.88. LDMDEGTQSFIVDGQYLGVAFRGL [L8Q] gave a protein stability index of 2.12. In the case of LDMDEGTNSFIVDGQYLGVAFRGL [L8N], the protein stability index is reported as 1.86. LDMDEGTLKFIVDGQYLGVAFRGL [S9K] showed a protein stability index of 1.99. LDMDEGTLPFIVDGQYLGVAFRGL [S9P] gave a protein stability index of 1.74. In the case of LDMDEGTLQFIVDGQYLGVAFRGL [S9Q], the protein stability index is reported as 2.01. LDMDEGTLEFIVDGQYLGVAFRGL [S9E] gave a protein stability index of 2.58. Work on LDMDEGTLVFIVDGQYLGVAFRGL [S9V] yielded a protein stability index of 1.81. With LDMDEGTLHFIVDGQYLGVAFRGL [S9H] the protein stability index was 2.95. LDMDEGTLNFIVDGQYLGVAFRGL [S9N] showed a protein stability index of 2.9. For LDMDEGTLTFIVDGQYLGVAFRGL [S9T], the protein stability index was 2.45. LDMDEGTLLFIVDGQYLGVAFRGL [S9L] gave a protein stability index of 1.75. LDMDEGTLCFIVDGQYLGVAFRGL [S9C] gave a protein stability index of 2.76. Work on LDMDEGTLYFIVDGQYLGVAFRGL [S9Y] yielded a protein stability index of 2.89. Variant LDMDEGTLDFIVDGQYLGVAFRGL [S9D] has a protein stability index of 1.87. With LDMDEGTLAFIVDGQYLGVAFRGL [S9A] the protein stability index was 3.98. With LDMDEGTLGFIVDGQYLGVAFRGL [S9G] the protein stability index was 2.99. Work on LDMDEGTLSFIVDGQYLCVAFRGL [G18C] yielded a protein stability index of 2.03. Variant LDMDEGTLSFIVDGQYLNVAFRGL [G18N] has a protein stability index of 2.19. In the case of LDMDEGTLSFIVDGQYLIVAFRGL [G18I], the protein stability index is reported as 4.2. Variant LDMDEGTLSFIVDGQYLRVAFRGL [G18R] has a protein stability index of 2.38. Variant LDMDEGTLSFIVDGQYLSVAFRGL [G18S] has a protein stability index of 2.8. With LDMDEGTLSFIVDGQYLPVAFRGL [G18P] the protein stability index was 1.26. In the case of LDMDEGTLSFIVDGQYLTVAFRGL [G18T], the protein stability index is reported as 3.06. For LDMDEGTLSFIVDGQYLYVAFRGL [G18Y], the protein stability index was 3.25. Work on LDMDEGTLSFIVDGQYLQVAFRGL [G18Q] yielded a protein stability index of 1.42. In the case of LDMDEGTLSFIVDGQYLAVAFRGL [G18A], the protein stability index is reported as 2.82. In the case of LDMDEGTLSFIVDGQYLLVAFRGL [G18L], the protein stability index is reported as 2.31. LDMDEGTLSFIVDGQYLFVAFRGL [G18F] gave a protein stability index of 2.44. For LDMDEGTLSFIVDGQYLKVAFRGL [G18K], the protein stability index was 1.8. LDMDEGTLSFIVDGQYLMVAFRGL [G18M] gave a protein stability index of 2.85. For LDMDEGTLSFIVDGQYLWVAFRGL [G18W], the protein stability index was 1.91.
